From PMC3319870 (New Biotechnology, 2011)

Molecular target: Fyn SH3 domain, His6-tagged SUMO fusion (human, UniProt P06241 82-143)
Test: ELISA

Fyn SH3 domain, His6-tagged SUMO fusion, sequence (P06241 82-143): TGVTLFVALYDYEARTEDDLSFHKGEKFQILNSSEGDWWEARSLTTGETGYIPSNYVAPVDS

B1: proline-rich peptide VSLARRPLPPLPGGK (peptide)
peptide: VSLARRPLPPLPGGK
B1 showed an IC50 of ~440 nM.
